# Measured values as given in the RNAGym collection of RNA variant scans (doi:10.1093/nar/gkz1192).
# B1: CPEB3 Ribozyme (parent)
# chain: UAACAGGGGGCCACAGCAGAAGCGUUCACGUCGCAGCCCCUGUCAGAUUCUGGUGAAUCUGCGAAUUCUGCUGUAUAUCUC
# Variants of: B1
# Experiment: self-cleavage, relative activity (ratio to wild type); higher = more cleavage; in vitro, sequencing
# Method in brief: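 Libraries of CPEB3 self-cleaving ribozyme mutants came from rounds of error-prone PCR and carried barcodes, which DNA sequencing matched to variants. In vitro transcription used T7 RNA polymerase at 37°C for 5 hours, with a further 15 min in DNase I before EDTA stopped the reaction; the ribozymes cleaved during both steps. The RNA was reverse transcribed with template switching and sequenced on Illumina. Relative activity is the cleaved/total read fraction of a variant divided by that of the unmutated ribozyme, averaged over three batches with at least 5 reads.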
row,Variant,self-cleavage
1,UAACAGAGGGCCACAGCAGGAGCGUUCACGUCGCAGCCCCUGUCAGAUUCUGGUGAAUCUGCGAAUUCUGCUGUAUAUCUC [G7A A20G],0.26
2,UAACAGAGGGCCACAGCAGCAGCGUUCACGUCGCAGCCCCUGUCAGAUUCUGGUGAAUCUGCGAAUUCUGCUGUAUAUCUC [G7A A20C],0.27
3,UAACAGAGGGCCACAGCAGAAGCGUUCCCGUCGCAGCCCCUGUCAGAUUCUGGUGAAUCUGCGAAUUCUGCUGUAUAUCUC [G7A A28C],0.2
4,UAACAGAGGGCCACAGCAGAAGCGUUCGCGUCGCAGCCCCUGUCAGAUUCUGGUGAAUCUGCGAAUUCUGCUGUAUAUCUC [G7A A28G],0.16
5,UAACAGAGGGCCACAGCAGAAGCGUUCACGUCGCAGCCCCUGUCAGAUUCUGGUGAAUCUGCGAAUUCUGCUGUGUAUCUC [G7A A75G],0.3
6,UAACAUGGGGCCACAGCAGAAGCGUUCACGUCGCAGCCCCUGUCAGAUUCUGGUGAAUCCGCGAAUUCUGCUGUAUAUCUC [G6U U60C],0.24
7,UAACAUGGGGCCACAGCAGAAGCGUUCACGUCGCAGCCCCUGUCAGAUUCUGGUGAAUCAGCGAAUUCUGCUGUAUAUCUC [G6U U60A],0.49
8,UAACAGAGGGCCACUGCAGAAGCGUUCACGUCGCAGCCCCUGUCAGAUUCUGGUGAAUCUGCGAAUUCUGCUGUAUAUCUC [G7A A15U],0.23
9,UAACAGAGGGCCACGGCAGAAGCGUUCACGUCGCAGCCCCUGUCAGAUUCUGGUGAAUCUGCGAAUUCUGCUGUAUAUCUC [G7A A15G],0.09
10,UAACAUGGGGCCACAGCAGAAGCGUUCACGUCGCAGCCCCUGUCAGAUUCCGGUGAAUCUGCGAAUUCUGCUGUAUAUCUC [G6U U51C],0.36
11,UAACAUGGGGCCACAGCAGAAGCGUUCACGUCGCAGCCCCUGUCAGAUUCUGGUGAAUCUGCGAAUUCUGCUGUAUAACUC [G6U U78A],0.79
12,UAACAGAGGGCUACAGCAGAAGCGUUCACGUCGCAGCCCCUGUCAGAUUCUGGUGAAUCUGCGAAUUCUGCUGUAUAUCUC [G7A C12U],0.07
13,UAACAUGGGGCCACAGCAGAAGCGUUCACGUCGCAGCCCCUGUCAGAUUCUGGUGAAUCUGGGAAUUCUGCUGUAUAUCUC [G6U C62G],0.25
14,UAACAUGGGGCCACAGCAGAAGCGUUCACGUCGCAGCCCCUGUCAGAUUCUGGUGAAUCUGCGAAUUCUGCUGUACAUCUC [G6U U76C],0.15
15,UAACAUGGGGCCACAGCAGAAGCGUUCACGUCGCAGCCCCUGUCAGAUUCUGGUGAAUCUGCGAAUUCUGCUGUAAAUCUC [G6U U76A],0.32
16,UAACAGAGGGCCACAGCAGAAGCGUUCACGUCGCAGCCCCUGUCAGAUUCUGGUGAAUCUGCGAAUUCUGCUGUAUUUCUC [G7A A77U],0.26
17,UAACAGAGGGCCACAGCAGAAGCGUUCACGUCGCAGCCCCUGUCAGAUUCUGGUGGAUCUGCGAAUUCUGCUGUAUAUCUC [G7A A56G],0.15
18,UAACAGAGGGCCACAGCAGAAGCGUUCACGUCGCAGCCCCUGUCAGAUUCUGGUGUAUCUGCGAAUUCUGCUGUAUAUCUC [G7A A56U],0.52
19,UAACAUGGGGCCACAGCAGAAGCGUUCACGUCGCAGCCCCUGUCAGAUUCUGGUGAACCUGCGAAUUCUGCUGUAUAUCUC [G6U U58C],0.16
20,UAACAUGGGGCCACAGCAGAAGUGUUCACGUCGCAGCCCCUGUCAGAUUCUGGUGAAUCUGCGAAUUCUGCUGUAUAUCUC [G6U C23U],0.25
21,UAACAGAGGGCCACAGCAGAAGCGUUCACGUCGCAGCCCCUGUCAGAUUCUGGUGAAUCUGCGAAUUCUGCUGUAUAUCUC [G7A],0.25
22,UAACAGAGGGCCAAAGCAGAAGCGUUCACGUCGCAGCCCCUGUCAGAUUCUGGUGAAUCUGCGAAUUCUGCUGUAUAUCUC [G7A C14A],0.31
23,UAACAUGGGGCCACAGCAGAAGCGUUCACGACGCAGCCCCUGUCAGAUUCUGGUGAAUCUGCGAAUUCUGCUGUAUAUCUC [G6U U31A],0.17

row,Variant,self-cleavage
1,UAACAUGGGGCCACAGCAGAAGCGUUCACGCCGCAGCCCCUGUCAGAUUCUGGUGAAUCUGCGAAUUCUGCUGUAUAUCUC [G6U U31C],0.22
2,UAACAUGGGGCCACAGCAGAAGCGUUCACGUCGCAGCCCCUGCCAGAUUCUGGUGAAUCUGCGAAUUCUGCUGUAUAUCUC [G6U U43C],0.32
3,UAACAUGGGGCCACAGCAGAAGCGUUCACGUCGCAGCCCCUGUCAGAUUCUGGUGAAUCUGCGAAUUCUGAUGUAUAUCUC [G6U C71A],0.16
4,UAACAGAGGGCCGCAGCAGAAGCGUUCACGUCGCAGCCCCUGUCAGAUUCUGGUGAAUCUGCGAAUUCUGCUGUAUAUCUC [G7A A13G],0.3
5,UAACAGAGGGCCACAGCAGAAGCGUUCACGUCGCAGCCCCUGUCAGAUUCUGGUGAGUCUGCGAAUUCUGCUGUAUAUCUC [G7A A57G],0.12
6,UAACAUGGGGCCACAGCAGAAGCGUUCACGUCGCAGCCCCUGUCAGAUUCUGGUGAAUUUGCGAAUUCUGCUGUAUAUCUC [G6U C59U],0.09
7,UAACAUGGGGCCACAGCAGAAGCGUUCACGUCGCAGCCCCUGUCAGAUUCUGGUGAAUCUGCGAAUUCUGCCGUAUAUCUC [G6U U72C],0.37
8,UAACAUGGAGCCACAGCAGAAGCGUUCACGUCGCAGCCCCUGUCAGAUUCUGGUGAAUCUGCGAAUUCUGCUGUAUAUCUC [G6U G9A],0.4
9,UAACAGAGGGCCACAGCAGAAGCGUUCACGUCGCAGCCCCUGUCGGAUUCUGGUGAAUCUGCGAAUUCUGCUGUAUAUCUC [G7A A45G],0.16
10,UAACAGAGGGCCACAGCAGAAGCGUUCACGUCGCAGCCCCUGUCUGAUUCUGGUGAAUCUGCGAAUUCUGCUGUAUAUCUC [G7A A45U],0.16
11,UAACAGAGGGCCACAGCAGAAGCGUUCACGUCGCAGCCCCUGUCAGAUUCUGGUGAAUCUGCGAGUUCUGCUGUAUAUCUC [G7A A65G],0.11
12,UAACAGAGGGGCACAGCAGAAGCGUUCACGUCGCAGCCCCUGUCAGAUUCUGGUGAAUCUGCGAAUUCUGCUGUAUAUCUC [G7A C11G],0.07
13,UAACAGAGGGCCACAGCAGAAGCGUUCACGUCGCGGCCCCUGUCAGAUUCUGGUGAAUCUGCGAAUUCUGCUGUAUAUCUC [G7A A35G],0.46
14,UAACAGAGGGCCACAGCAGAAGCGUUCACGUCGCUGCCCCUGUCAGAUUCUGGUGAAUCUGCGAAUUCUGCUGUAUAUCUC [G7A A35U],0.19
15,UAACAGAGGGCCACAGCAGAAGCGUUCACGUCGCAGCCCCUGUCAGAUUCUGGUGAAUCUGCGUAUUCUGCUGUAUAUCUC [G7A A64U],0.18
16,UAACAGAGGGCCACAGCAGAAGCGUUCACGUCGCAGCCCCUGUCAGAUUCUGGUGAAUCUGCGGAUUCUGCUGUAUAUCUC [G7A A64G],0.28
17,UAACAUGGGGCCACAGCAGAAGCGUUCACGUCGCAGCCCCUGUCAGAUCCUGGUGAAUCUGCGAAUUCUGCUGUAUAUCUC [G6U U49C],0.22
18,UAACAUGGGGCCACAGCAGAAGCGUUCACGUCGCAGCCCCUGUCAGAUACUGGUGAAUCUGCGAAUUCUGCUGUAUAUCUC [G6U U49A],0.38
19,UAACAUGAGGCCACAGCAGAAGCGUUCACGUCGCAGCCCCUGUCAGAUUCUGGUGAAUCUGCGAAUUCUGCUGUAUAUCUC [G6U G8A],0.23
20,UAACAUGGGGCCACAGCAGAAGCGUUCACGUCGCAGCCCCAGUCAGAUUCUGGUGAAUCUGCGAAUUCUGCUGUAUAUCUC [G6U U41A],0.35
21,UAACAUAGGGCCACAGCAGAAGCGUUCACGUCGCAGCCCCUGUCAGAUUCUGGUGAAUCUGCGAAUUCUGCUGUAUAUCUC [G6U G7A],0.33
22,UAACAUGGGGCCACAGCAGAAGCGUUCACGUCGCAGCCCCUGUCAGAUUCUGGUGAAUCUGCGAAUUCUGCUGGAUAUCUC [G6U U74G],0.4
23,UAACAUGGGGCCACAGCAGAAGCGUUCACGUCGCAGCCCCUGUCAGAUUCUGGUGAAUCUGCGAAUUCUGCUGUAUAUAUC [G6U C79A],0.46

row,Variant,self-cleavage
1,UAACAGAGGGCCACAGCGGAAGCGUUCACGUCGCAGCCCCUGUCAGAUUCUGGUGAAUCUGCGAAUUCUGCUGUAUAUCUC [G7A A18G],0.25
2,UAACAUGGGGCCACAGCAGAAGCGUUCACGUCGCAGCCCCUGUCAGAUUCUGGUGAAUCUGCGAAUUCUGCUGUAUAUCAC [G6U U80A],0.44
3,UAACAUGGGGCCACAGCAGAAGCGUUCACGUCGCAGCCCCUGUCAGAUUCUGGUGAAUCUGCGAAUUCUGCUGUAUAUCCC [G6U U80C],0.09
4,UAACAUGGGGCCACAGCAGAAGCGUUCACGUUGCAGCCCCUGUCAGAUUCUGGUGAAUCUGCGAAUUCUGCUGUAUAUCUC [G6U C32U],0.08
5,UAACAUGGGGCCACAGCAGAAGCGUUCACGUCGCAGCCCCUGUCAGAUUCUGGUGAAUCUGCGAAUACUGCUGUAUAUCUC [G6U U67A],0.09
6,UAACAUGGGGCCACAGCAGAAGCGUUCACGUCGCAGCCCCUGUCAGAUUCUGGUGAAUCUGCGAAUCCUGCUGUAUAUCUC [G6U U67C],0.11
7,UAACAUGGGGCCACAGCAGAAGCGUUCACGUCGCAGCCCCUGUCAGAUUCUGGUGAAUCUGCGAAAUCUGCUGUAUAUCUC [G6U U66A],0.13
8,UAACAUGGGGCCACAGCAGAAGCGUUCACGUCGCAGCCCCUGUCAGAUUCUGGUGAAUCUGCGAACUCUGCUGUAUAUCUC [G6U U66C],0.2
9,UAACAUGGGGCUACAGCAGAAGCGUUCACGUCGCAGCCCCUGUCAGAUUCUGGUGAAUCUGCGAAUUCUGCUGUAUAUCUC [G6U C12U],0.19
10,UAACAGAGGGCCACAGCAGAGGCGUUCACGUCGCAGCCCCUGUCAGAUUCUGGUGAAUCUGCGAAUUCUGCUGUAUAUCUC [G7A A21G],0.33
11,UAACAUGGGACCACAGCAGAAGCGUUCACGUCGCAGCCCCUGUCAGAUUCUGGUGAAUCUGCGAAUUCUGCUGUAUAUCUC [G6U G10A],0.34
12,UAACAUGGGGCCACAGCAGAAGCGCUCACGUCGCAGCCCCUGUCAGAUUCUGGUGAAUCUGCGAAUUCUGCUGUAUAUCUC [G6U U25C],0.37
13,UAACAUGGGGCCACAGCAGAAGCGUUCAUGUCGCAGCCCCUGUCAGAUUCUGGUGAAUCUGCGAAUUCUGCUGUAUAUCUC [G6U C29U],0.25
14,UAACAUGGGGCCACAGCAGAAGCGUUCACGUCGCAGCCCCUGUCAGACUCUGGUGAAUCUGCGAAUUCUGCUGUAUAUCUC [G6U U48C],0.13
15,UAACAUGGGGCCACAGCAGAAGCGUUCACGUCGCAGCCCCUGUCAGAAUCUGGUGAAUCUGCGAAUUCUGCUGUAUAUCUC [G6U U48A],0.16
16,UAACAUGGGGCCACAGCAGAAGCGUUCACGUCGCAGCCCCUGUCAGAUUCUGGUGAAUCUGCGAAUUCCGCUGUAUAUCUC [G6U U69C],0.22
17,UAACAUGGGGCCACAGCAGAAGCGUCCACGUCGCAGCCCCUGUCAGAUUCUGGUGAAUCUGCGAAUUCUGCUGUAUAUCUC [G6U U26C],0.38
18,UAACAUGGGGCCACAGCAGAAGCGUACACGUCGCAGCCCCUGUCAGAUUCUGGUGAAUCUGCGAAUUCUGCUGUAUAUCUC [G6U U26A],0.13
19,UAACAGAGGGCCACAGCAGAAGCGUUCACGUCGCAGCCCCUGUCAGGUUCUGGUGAAUCUGCGAAUUCUGCUGUAUAUCUC [G7A A47G],0.09
20,UAACAUGGGGCCACACCAGAAGCGUUCACGUCGCAGCCCCUGUCAGAUUCUGGUGAAUCUGCGAAUUCUGCUGUAUAUCUC [G6U G16C],0.19
21,UAACAUGGGGCCACAGCAGAAGCGUUCACGUCGCAGCCCCUGUCAGAUUCUAGUGAAUCUGCGAAUUCUGCUGUAUAUCUC [G6U G52A],0.47
22,UAACAUGGGGCCACAGCAGAAGCGUUCACGUCGCAGCCCCUGUCAGAUUCUGGUGAAUCUGCGAAUUCUGCUAUAUAUCUC [G6U G73A],0.57
